Laboratory results taken from a protein production outcome set (Wang et al. 2014).

Assay: label from the status in PepcDB records

| Sequence | protein production |
| --- | --- |
| SDSTAGTDAVAVGGTFQFHSPDGKMEIFYDEADRQQLPDIGGDSLMEEGTQINLSDFENQVVILNAWGQWCAPCRSESDDLQIIHEELQAAGNGDTPGGTVLGINVRDYSRDIAQDFVTDNGLDYPSIYDPPFMTAASLGGVPASVIPTTIVLDKQHRPAAVFLREVTSKDVLDVALPLVDEA | not failed |
| MKDLLKWKFVETLDFLFDMDKYGRQMLFLQERGRMKLMEGFAVEFRGDGWDNDLASYCGKIVECSWDKEKKVWVSLRIRVDKSKPNGIGTGRSVIKCIEDDLTKEVLLKEIKEIILLP | not failed |
| MENQEVVLSIDAIQEPEQIKFNMSLKNQSERAIEFQFSTGQKFELVVYDSEHKERYRYSKEKMFTQAFQNLTLESGETYDFSDVWKEVPEPGTYEVKVTFKGRAENLKQVQAVQQFEVK | not failed |
| MKAELIAVGTEILTGQIVNTNAQFLSEKMAELGIDVYFQTAVGDNEERLLSVITTASQRSNLVILCGGLGPTKDDLTKQTLAKYLRKDLVYDEQACQKLDDFFAKRKPSSRTPNNERQAQVIEGSIPLPNKTGLAVGGFITVDGISYVVLPGPPSELKPMVNEELVPLLSKQYSTLYSKVLRFFGIGESQLVTVLSDFIENQTDPTIAPYAKTGEVTLRLSTKTE | failed |
| MRLSAEQVVEVLRAAGESTRLRLLALLAAEELSVLELCRILDQSQPRVSRHLKLLAEAGLVERFPDGAWVFYRLAAKSPGRLLVEQALDLIDEGDETVQSDADKLAAVRAERSTDAQAYFARNAARWNEIRSLYVDEAEVEAAILRATGEGPFDEMVDLGAGAGRMLTLLGKRAANALGLDLSQQMLNIARDEVSKAGLTACELRHGDIFRTGLPGGCADLVTVHQVLHYLTDPATAVAEAARLVTPGGLLLIADFAPHGHEFLREVHQHRRLGFDDAEIVAWLQAAGLVLESNIALPPATAEGLTVKIWTARRPGKASLERSAA | failed |
| MMKETQQWTSKIGFVLAAAGAAVGLGAIWKFPYVAGNGGGGAFFLVFLLLTLFIGMPLLIAEFVIGRSTQKEAVTAYKVLVPNSKLYPWIGRMGVVTCFSVLSFYSVVGGWILLYLYYSVTGSFWNGAADYGQLFGETISNPLSAIGAQFIFMLCTIFVVSKGVEKGIEKASKYMMPLLFILFIAIIVRALTLDGAFAGVEFFLKPDFSKLTADTILYAMGQSFFSLTVGASVMVTYSSYLKKEEHLAKSATSIVSLTVFVTVLAGLAIFPAIFALGVKPTEGPGLLFIVLPAVFAKIPFGQFFFIMFLILFFFATLTSAISMLEIVVASVAKGNEKKRPSASLLIGILIFAVGIPSALSFGIMSDVKIFGKTFFDLVDFSVSNVLLPLGVLAISLFVPNKMSKELLMKELEVTETKGKTLFNIWFFLLRYVIPVTVIIVFLNAIGVFKMFA | failed |
| MISVAHSPDADDIFMYYAIKFGWIDCPIKNKAFHNIALDIETLNQEALKNTYDVSAISFGLYPKIANDYALLPTATSFGNGYGPKLVKKKGVKLKKDFRVALSGEHTTNALLFKIYYKHARITYMNFLDIEKAVLEEKVHAGVLIHESILDFHNELEVEKELWDVWKELIEVDLPLPLGGMAIRRSIPLYRAILIKKALIKAVEVALKHQNLLSGMLLERSLIRVNKERLRTYLSLYANETSTRLSEIQILAIDKLFELGYQHGFYASLLKTKDCLLTDEYLKYRFS | failed |
| DDDDDNGGSSVMNITGIYLEDAKSNVPDRLVDFARLGQLIRIEGEGFNGLKKVYINGYNCYFNPVFVSNKSFLVSVNSKVPTTEADENVRNTIRLVKDGGEYVYDFQIRAAAPSITKISNCMPNVGEPIIVYGSGLTEIAKVVFPGNVVVTEGIISDLDGEYFMVDMPAGVSEEGGSIFVEGSNGGAYSPAYFNYKKGLLLNFDGVGAQGAWGDSESMIQTTELESASIGEGNVSQGAYCRLPLERQLPVAAAKNRCAEVWTAGNGTDPDWLTLGVPAETPVAECAIQFEIYVPEPWSESGFLKICGQNGFNGGEWERDCYNYVPWLVDGKIVPFQTTGWQTVTVPFSEFYKSKASSGAWTTFADVTATRASASYANFGFYFENSDITLDKITGASSDKETEFLSKATSVKIYIDNWRVVPLTKPEYTDFPDEEEDAE | not failed |
| MASYFDEHDCEPSDPEQETRTNMLLELARSLFNRMDFEDLGLVVDWDHHLPPPAAKTVVENLPRTVIRGSQAELKCPVCLLEFEEEETAIEMPCHHLFHSSCILPWLSKTNSCPLCRYELPTDDDTYEEHRRDKARKQQQQHRLENLHGAMYT | failed |
| MSLLPLPFTVHFDPTNQELLLSGKMRPESAAEITDALKLVQQSLEKYSGVVYVNVKRLTHINMTAFAALADILAASSRIRPERKIVIITSSVVAWSTSLFQTLAASQPSLSVEVYDSAFYPGQSFVEDETFIPILRTQTKMTWRHERELLPRHGLRSGLVIADICCGIGDFAALVQREFKPARLVALDHSVRSLEYARRVAADFDLQGIEYTYGDASQMLLRDNQFDFVTCRHSLQIFNRPEMLLRELYRICKPGGRVYITNEKNSHCLGEPHAESIKWTYEEVAKLFKHFDMDVEMGPKSRHLLADAGFDNIKVDSFMVTNLDGDPQDFADIIEAWENVYAGEMAVRRGDSSDFIRRFRQGFKDHVFAALHPKGYAGWPIWAASGRKPL | failed |
| TTSDNTALFYRHWPTLLPGAKKVIVLFHRGHEHSGRLQHIVDELAMPDTAFYAWDARGHGQTSGPRGYSPSLARSVQDVDEFVRFAASDSQVGLEEVVVIAQSVGAVMVATWVHDYAPAIRGLVLASPAFKVKLYVPLARPGLALWHRLRGLFFINSYVKGRYLTHDRQRVASFNNDPLITRAIAVNILLDLYKTSERIVSDAAAITLPTQLLISGDDYVVHRQPQIDFYQRLRSPLKELHLLPGFYHDTLGEENRAQAFEKMQSFISRLYA | failed |
| MTDAEYGLPRRSLLAGAAGAGAAFALPAGAAQAAPAASPQAGAERRHPRNWPDPEPYGAADTRADLWPREDNSFVLPLELRPRDQERGTVWMRDTYVNCFVVDGRPLYVATGTTRVPGLEAAGPWNDGIFVWLAPSLDGPWRLADTTGIRPGAERGKVWSPEFAGENRPGRTVVAPWQEYWHDEQFGKRGQAWAPELHYFRDTWYLVACMGDHSRKVGSFMLVSEGGVEGPYRLVEGNLDKPFGDSFIGGPKFIEPGAYHHIDGGLFSEGDDAWLVLHNDLYAKFRDDMEDIVTTTDLPRFRQTPYSPEPYLEGAYVFKYRGKYHLVHAAWDRTSVNADGTVRQAYDVPAAGRVQYQYDAIVAVADRFEGPYSKRYTAGVGAGHNNFFVDHRGGLWATYFLNPAAGYWSGASRVAESAVPGVVRLEWTGPAGGRLYVKRGSGGPGSGH | failed |
| EMRLEKDRFSVNLDVKHFSPEELKVKVLGDVIEVHGKHEERQDEHGFISREFHRKYRIPADVDPLTITSSLSSDGVLTVNGPRKQVSGPERTIPIT | failed |
| MAKVVKLEPISRETTVNTNDNLLSALLDSELHVLKECGGRGMCATCHVYIKEGMESLSPINKREQRTLEVITTANATSRLACQARVLGPGVVVELPSGMYVNAVEDIESLIGRRAEQDILHPLDGRVLVEAGKLITRTMITQLKDTQVQVGQYFANTSDALEHHHHHH | not failed |
| MDAPGPKPLRVARYWLYTGEHPARTTEVPVWNKLCLSVCCAILVLTASSCGADKSSDFLTEGRKLMDAGNAAGAVVLFRNALEKTPADYTLHLELGRAYIALGKLDLAEGELQKCLRQQPDDPPLNLALGELYVARNEPAKALPHLARYEQGAGETAVSRELAGLAHAQARSPEEARAALERSIALDAKRVTPRLALARLFLYRGDLKRAVATVDEALAVAPEDRLALTLRGDLLLRQGDAPGALVVFRKVASLAPGDDYARYMSGLLALQTGDEAGAAAVAASMNKDFKDNSLTLMLDGALAAQRKDYTLAASLFQRSVAMRPSLEGYYKLGMALYGKGDLETALSQFNRVLEATPEYDAARRMTVTILLAQRRVAEARQEAQKLVERNPSDAAAHFMLASAQMAAGDRAGAERSFEAGLALQPAHVPALLQLSRLKQADGRPDEALEDLKAAVVAAPDDLAVRNALFAYHLGRGDTGKGVQVVLEGLRGTPQDAILYTMLVPVYVNMGDEAKGLDAVAQAHRADPDFPDAYLAGLRLHAGAGRAEQALAESEAYLARKPDAPGFLLASGALLDLLGRTAEADARFDKALAANDPRVSFAVAERAVASGQDEKARRVLEEALRQHDQTTLRDALAIQLARMGKPDDALALYTAIETQRPREALLGRYRLLTHLDRHQEAADTARELGRRESASPLPVLLEAAAFERMGQRPQGVALLEAAHRKSGDPELLLAMGGMLERNGDEARAETCYRDALKARPDHVPTLLAYAGLDMRRKEYAKATALYEKAVSIAPDDVVALNNLAMAYLEKASRDATPQKALRLALQAYTRAPDNPAVLDTLGVCMMANGRADDAARAFGRAVVAVPGNPSLRYRHAEALFKAGRKDMAAEELRAALQTPDFPEAAKARDLLRKTGN | failed |
| MAGNFDSEERSSWYWGRLSRQEAVALLQGQRHGVFLVRDSSTSPGDYVLSVSENSRVSHYIINSSGPRPPVPPSPAQPPPGVSPSRLRIGDQEFDSLPALLEFYKIHYLDTTTLIEPVSRSRQGSGVILRQEEAEYVRALFDFNGNDEEDLPFKKGDILRIRDKPEEQWWNAEDSEGKRGMIPVPYVEKYRPASASVSALIGGNQEGSHPQPLGGPEPGPYAQPSVNTPLPNLQNGPIYARVIQKRVPNAYDKTALALEVGELVKVTKINVSGQWEGECNGKRGHFPFTHVRLLDQQNPDEDFS | failed |
| QWDITLIGHEDDLSQLSHEKLSKLAACIEYSPYPMVEIDYFGNLTYLNTATKEKFPSIQKDSMAHPLLKDIIPQREDTPIYYLRTREVQIGDKFYEQHIHYPAESQFIRSYIFDITERKVIEQSIHYQAFYDPLTDLPNRFLFKQELGKVLSNVQNQSSVLGLVLLGFRELQSLNDLLG | failed |
| MEYILYISRFLYRIRWWLLIGTAIITFAVYYFGKRMIGKTYNVEATLYTGAASGYNLEGGNNKVDWATTQNAMDNLMNIIKAESTLKRVSIRLYARSLIKGNPKEDNEFIKASNYNRIYEHLKNSPNGKEILSLIDKNSEDKTVANFFNYLRPTQANYLYGVFYYNLPYYSYNDLRAIRVARKGASDLIEISYTASDPGIAYNTIDILTKEFVNEYSAIRYGETDKVIEYFKSELQRIGKELRLKEDSLTQYNVEKRVINYYDETKEIAAINKEFELREQNVLIAYNSAKAMLNELEKQMGSNAKHVINNLQFLDKLNEAASLTGKISEMETISSDHQNQEASLQEYKNRLNQTRKELSELSNKYVENKYTKEGIAKENIIEQWLEVTMQYEKAKSDLQIIQQSRIDLNEKYRQFAPVGSTIKRQERNITFIEQNYLSVLKSYNDALMRRKNLEMTSAALKVLNAPAYPISAMPTPLKKMVMAACAGTFLFILGFFLILELLDRTLRDSIRTRRLIGLPMLGAFPKDSILEYHNHVEESKSIATKQLSNSILRFCQQKKEGLPYIINFISTEGGEGKSYVIEALKKYWNSIGLKTKVITWKSDFRIDSREYNLAKSITDLYTSEEEDILIVEYPNLREASISLELLQEANLNILVARADRGWKETDKLLSEKLSQQVGKTPLYVYLTHASRNVVEDYTGMLPPYTLWRKIVYRLSQLALTESIFTFTKRKKQPATSGDEDDE | failed |
| MSLEKPYIISVYALIRNEKGEFLLLRRSENSRTNAGKWDLPGGKVNPDESLKEGVAREVWEETGITMVPGDIAGQVNFELTEKKVIAIVFDGGYVVADVKLSYEHIEYSWVSLEKILGMETLPAYFRDFFERFDRENKKPSKLFIEGHHHHHH | not failed |
